Reference: patent publication US20190010242A1 (INHIBRX, published 2019)

B1: Dual-affinity Re-targeting Antibody (DART)-monomeric Fc format targeting B7H3 and CD3 (bispecific antibody)
chain 1: DIQLTQSPSFLSASVGDRVTITCKASQNVDTNVAWYQQKPGKAPKALIYSASYRYSGVPSRFSGSGSGTDFTLTISSLQPEDFATYYCQQYNNYPFTFGQGTKLEIKGGGSGGGGEVQLVESGGGLVQPGGSLRLSCAASGFTFSTYAMNWVRQAPGKGLEWVGRIRSKYNNYATYYADSVKDRFTISRDDSKNSLYLQMNSLKTEDTAVYYCVRHGNFGNSYVSWFAYWGQGTLVTVSSGGCGGGEVAALEKEVAALEKEVAALEKEVAALEKGGGDKTHTCPPCPAPEAAGGPSVFLFPPKPKDTLMISRTPEVTCVVVDVSHEDPEVKFNWYVDGVEVHNAKTKPREEQYNSTYRVVSVLTVLHQDWLNGKEYKCKVSNKALPAPIEKTISKAKGQPREPQVYTLPPSREEMTKNQVSLWCLVKGFYPSDIAVEWESNGQPENNYKTTPPVLDSDGSFFLYSKLTVDKSRWQQGNVFSCSVMHEALHNHYTQKSLSLSPGK
chain 2: QAVVTQEPSLTVSPGGTVTLTCRSSTGAVTTSNYANWVQQKPGQAPRGLIGGTNKRAPWTPARFSGSLLGGKAALTITGAQAEDEADYYCALWYSNLWVFGGGTKLTVLGGGGSGGGGEVQLVESGGGLVQPGGSLRLSCAASGFTFSSFGMHWVRQAPGKGLEWVAYISSDSSAIYYADTVKGRFTISRDNAKNSLYLQMNSLRDEDTAVYYCGRGRENIYYGSRLDYWGQGTTVTVSSGGCGGGKVAALKEKVAALKEKVAALKEKVAALKE
chain 3: not shown
notes: also called DART-Fc B7H3×CD3; DART-Fc
B2: cx3309 (CD20-targeting constrained CD3 engaging construct, GA101 scFvs) (bispecific antibody)
chain 1: not shown
chain 2: DKTHTCPPCPAPELLGGPSVFLFPPKPKDTLMISRTPEVTCVVVDVSHEDPEVKFNWYVDGVEVHNAKTKPREEQYNSTYRVVSVLTVLHQDWLNGKEYKCKVSNKALPAPIEKTISKAKGQPREPQVYTLPPCRDELTKNQVSLWCLVKGFYPSDIAVEWESNGQPENNYKTTPPVLDSDGSFFLYSKLTVDKSRWQQGNVFSCSVMHEALHNHYTQKSLSLSPTGGSGGGGIEPDIGGSGGSEVQLVESGGGLVQPGGSLRLSCAASGFTFNTYAMNWVRQAPGKCLEWVARIRSKYNNYATYYADSVKGRFTISRDDAKNTLYLQMSSLRAEDTAVYYCVRHGNFGNSYVSWFAYWGQGTLVTVKP
scFv: QVQLVQSGAEVKKPGSSVKVSCKASGYAFSYSWINWVRQAPGQGLEWMGRIFPGDGDTDYNGKFKGRVTITADKSTSTAYMELSSLRSEDTAVYYCARNVFDGYWLVYWGQGTLVTVSGSGGGGSGGGGTGGGGSDIVMTQTPLSLPVTPGEPASISCRSSKSLLHSNGITYLYWYLQKPGQSPQLLIYQMSNLVSGVPDRFSGSGSGTDFTLKISRVEAEDVGVYYCAQNLELPYTFGGGTKVEIK
notes: also called cx3490
B3: cx3313 (B7H3-targeting constrained CD3 engager, B7H3 Fab) (bispecific antibody)
chain 1: not shown
chain 2: DKTHTCPPCPAPELLGGPSVFLFPPKPKDTLMISRTPEVTCVVVDVSHEDPEVKFNWYVDGVEVHNAKTKPREEQYNSTYRVVSVLTVLHQDWLNGKEYKCKVSNKALPAPIEKTISKAKGQPREPQVYTLPPCRDELTKNQVSLWCLVKGFYPSDIAVEWESNGQPENNYKTTPPVLDSDGSFFLYSKLTVDKSRWQQGNVFSCSVMHEALHNHYTQKSLSLSPTGGSGGGGIEPDIGGSGGSEVQLVESGGGLVQPGGSLRLSCAASGFTFNTYAMNWVRQAPGKCLEWVARIRSKYNNYATYYADSVKGRFTISRDDAKNTLYLQMSSLRAEDTAVYYCVRHGNFGNSYVSWFAYWGQGTLVTVKP
heavy: EVQLVESGGGLVQPGGSLRLSCAASGFTFSSFGMHWVRQAPGKGLEWVAYISSDSSAIYYADTVKGRFTISRDNAKNSLYLQMNSLRDEDTAVYYCGRGRENIYYGSRLDYWGQGTTVTVSSASTKGPSVFPLAPSSKSTSGGTAALGCLVKDYFPEPVTVSWNSGALTSGVHTFPAVLQSSGLYSLSSVVTVPSSSLGTQTYICNVNHKPSNTKVDKKVEPKSC
light: DIQLTQSPSFLSASVGDRVTITCKASQNVDTNVAWYQQKPGKAPKALIYSASYRYSGVPSRFSGSGSGTDFTLTISSLQPEDFATYYCQQYNNYPFTFGQGTKLEIKRTVAAPSVFIFPPSDEQLKSGTASVVCLLNNFYPREAKVQWKVDNALQSGNSQESVTEQDSKDSTYSLSSTLTLSKADYEKHKVYACEVTHQGLSSPVTKSFNRGEC
notes: also called cx3313 FAB
B4: cx3314 (B7H3-targeting constrained CD3 engager, B7H3 scFv) (bispecific antibody)
chain 1: not shown
chain 2: DKTHTCPPCPAPELLGGPSVFLFPPKPKDTLMISRTPEVTCVVVDVSHEDPEVKFNWYVDGVEVHNAKTKPREEQYNSTYRVVSVLTVLHQDWLNGKEYKCKVSNKALPAPIEKTISKAKGQPREPQVYTLPPCRDELTKNQVSLWCLVKGFYPSDIAVEWESNGQPENNYKTTPPVLDSDGSFFLYSKLTVDKSRWQQGNVFSCSVMHEALHNHYTQKSLSLSPTGGSGGGGIEPDIGGSGGSEVQLVESGGGLVQPGGSLRLSCAASGFTFNTYAMNWVRQAPGKCLEWVARIRSKYNNYATYYADSVKGRFTISRDDAKNTLYLQMSSLRAEDTAVYYCVRHGNFGNSYVSWFAYWGQGTLVTVKP
scFv: EVQLVESGGGLVQPGGSLRLSCAASGFTFSSFGMHWVRQAPGKGLEWVAYISSDSSAIYYADTVKGRFTISRDNAKNSLYLQMNSLRDEDTAVYYCGRGRENIYYGSRLDYWGQGTTVTVSSSGGGGSGGGGSGGGGSDIQLTQSPSFLSASVGDRVTITCKASQNVDTNVAWYQQKPGKAPKALIYSASYRYSGVPSRFSGSGSGTDFTLTISSLQPEDFATYYCQQYNNYPFTFGQGTKLEIK
notes: also called cx3314 scFv

Columns and labels:
[1] = biological target: T1, CD3 on the surface of primary human T cells (human, UniProt P07766 23-207); test: flow cytometry on primary human T cells
T1 construct: whole, on cells; CD3 is a multi-chain complex; also called CD3ε
T1 sequence (P07766 23-207): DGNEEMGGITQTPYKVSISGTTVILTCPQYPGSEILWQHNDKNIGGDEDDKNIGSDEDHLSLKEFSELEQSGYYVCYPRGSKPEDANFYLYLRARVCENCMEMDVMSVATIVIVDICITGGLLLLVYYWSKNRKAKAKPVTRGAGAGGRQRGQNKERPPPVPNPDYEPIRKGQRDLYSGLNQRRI

B7H3 on A375 cells = biological target: T2, B7H3 on A375 cells (UniProt Q5ZPR3 29-534, limits assumed); test: flow cytometry on A375 cells
T2 construct: whole, on cells; also called BH73
T2 sequence (looked up): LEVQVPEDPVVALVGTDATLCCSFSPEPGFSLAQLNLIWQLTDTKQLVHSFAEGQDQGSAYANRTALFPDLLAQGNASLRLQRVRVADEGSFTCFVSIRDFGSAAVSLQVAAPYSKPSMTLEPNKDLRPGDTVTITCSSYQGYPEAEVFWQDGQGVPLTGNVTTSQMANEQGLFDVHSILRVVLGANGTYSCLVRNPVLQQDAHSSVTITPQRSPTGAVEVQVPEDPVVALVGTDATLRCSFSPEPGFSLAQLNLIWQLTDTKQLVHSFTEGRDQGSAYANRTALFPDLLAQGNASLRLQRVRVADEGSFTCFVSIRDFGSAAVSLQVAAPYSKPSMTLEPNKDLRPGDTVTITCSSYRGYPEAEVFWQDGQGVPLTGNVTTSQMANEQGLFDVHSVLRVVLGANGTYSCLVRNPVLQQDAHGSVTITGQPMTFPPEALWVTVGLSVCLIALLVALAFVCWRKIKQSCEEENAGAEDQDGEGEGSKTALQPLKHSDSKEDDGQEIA

[2] = biological target: T1, CD3 on the surface of primary human T …; test: flow cytometry on primary human T cells (FIGS. 14C and 14D)

Binder	binding result [1]	binding result (B7H3 on A375 cells)	binding result [2]
B1	binds	binds	–
B2	no binding (tested: 100 nM)	–	–
B3	–	–	no binding
B4	–	–	no binding
